Data as given in patent US10500249B2, “Compositions and methods for preventing or treating diseases, conditions, or processes characterized by aberrant fibroblast proliferation and extracellular matrix deposition” (MOERAE MATRIX, INC., priority 2014, dated 2019).

Key:
Assay in all cases: Kinase Profiling Assay
Assay type in all cases: biochemical
Conditions in all cases: 100 μM
PKCδ (h) = biological target: T1, PKCδ (h) (Homo sapiens, UniProt Q05655)
T1 construct: purchased Millipore
How it was run: (§1)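 Radiometric filter-binding format: cationic substrate takes up labeled phosphate from ATP unless the inhibitor peptide blocks the kinase. Substrate bound to an anionic filter, scintillation-counted, normalized to 100% activity control. Duplicates; part of a 266-kinase selectivity panel for MK2 peptides.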

DAPK2 (h) = biological target: T2, DAPK2 (h) (Homo sapiens, UniProt Q9UIK4)
T2 construct: purchased Millipore
T2 sequence (Q9UIK4 whole entry): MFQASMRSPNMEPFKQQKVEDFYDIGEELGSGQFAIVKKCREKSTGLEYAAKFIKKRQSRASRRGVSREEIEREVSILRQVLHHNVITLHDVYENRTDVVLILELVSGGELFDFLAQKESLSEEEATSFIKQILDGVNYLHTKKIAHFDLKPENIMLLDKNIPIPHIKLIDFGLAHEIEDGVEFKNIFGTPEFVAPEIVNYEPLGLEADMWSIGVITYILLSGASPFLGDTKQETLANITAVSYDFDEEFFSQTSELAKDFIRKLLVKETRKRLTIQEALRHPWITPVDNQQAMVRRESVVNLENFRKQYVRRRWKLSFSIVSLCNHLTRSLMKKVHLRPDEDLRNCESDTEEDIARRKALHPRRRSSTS
How it was run: as §1

cKit (h) = biological target: T3, cKit (h) (Homo sapiens, UniProt P10721)
T3 construct: purchased Millipore
How it was run: as §1

CHK2(I157T) (h) = biological target: T4, CHK2(I157T) (h) (Homo sapiens, UniProt O96017, I157T)
T4 construct: purchased Millipore
T4 sequence (O96017 whole entry I157T): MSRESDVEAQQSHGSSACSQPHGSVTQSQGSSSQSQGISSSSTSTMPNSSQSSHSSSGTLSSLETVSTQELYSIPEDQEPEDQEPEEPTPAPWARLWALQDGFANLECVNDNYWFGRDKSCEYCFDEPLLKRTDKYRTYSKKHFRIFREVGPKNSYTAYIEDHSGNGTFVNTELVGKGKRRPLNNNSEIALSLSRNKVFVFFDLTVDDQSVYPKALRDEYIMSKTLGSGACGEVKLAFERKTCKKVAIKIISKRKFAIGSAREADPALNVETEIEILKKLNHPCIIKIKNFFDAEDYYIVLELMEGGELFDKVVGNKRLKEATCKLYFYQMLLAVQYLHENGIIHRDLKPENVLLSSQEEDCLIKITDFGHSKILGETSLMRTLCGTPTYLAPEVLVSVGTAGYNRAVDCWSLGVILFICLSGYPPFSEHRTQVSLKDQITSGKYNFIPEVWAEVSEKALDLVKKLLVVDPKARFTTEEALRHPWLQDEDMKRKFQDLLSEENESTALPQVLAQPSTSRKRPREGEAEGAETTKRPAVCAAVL
How it was run: as §1

VRK2 (h) = VRK2 (h) (Homo sapiens, UniProt Q86Y07)
Chain of VRK2 (h) (Q86Y07 whole entry): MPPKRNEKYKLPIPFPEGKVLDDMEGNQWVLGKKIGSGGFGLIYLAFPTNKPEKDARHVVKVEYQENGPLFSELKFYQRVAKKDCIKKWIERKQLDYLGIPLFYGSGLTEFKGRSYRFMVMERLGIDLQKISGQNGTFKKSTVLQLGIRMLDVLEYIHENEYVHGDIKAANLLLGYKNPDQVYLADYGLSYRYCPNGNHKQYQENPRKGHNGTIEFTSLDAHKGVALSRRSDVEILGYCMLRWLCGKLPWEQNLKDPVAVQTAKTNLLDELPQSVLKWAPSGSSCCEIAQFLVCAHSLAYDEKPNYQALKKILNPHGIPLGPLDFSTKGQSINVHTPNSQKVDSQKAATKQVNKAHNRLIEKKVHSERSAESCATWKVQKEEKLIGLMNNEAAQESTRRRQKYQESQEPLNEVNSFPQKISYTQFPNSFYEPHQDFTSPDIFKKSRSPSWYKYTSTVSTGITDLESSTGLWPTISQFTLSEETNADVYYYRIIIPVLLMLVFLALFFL
How it was run: as §1

TSSK2 (h) = biological target: T5, TSSK2 (h) (Homo sapiens, UniProt Q96PF2)
T5 sequence (Q96PF2 1-358): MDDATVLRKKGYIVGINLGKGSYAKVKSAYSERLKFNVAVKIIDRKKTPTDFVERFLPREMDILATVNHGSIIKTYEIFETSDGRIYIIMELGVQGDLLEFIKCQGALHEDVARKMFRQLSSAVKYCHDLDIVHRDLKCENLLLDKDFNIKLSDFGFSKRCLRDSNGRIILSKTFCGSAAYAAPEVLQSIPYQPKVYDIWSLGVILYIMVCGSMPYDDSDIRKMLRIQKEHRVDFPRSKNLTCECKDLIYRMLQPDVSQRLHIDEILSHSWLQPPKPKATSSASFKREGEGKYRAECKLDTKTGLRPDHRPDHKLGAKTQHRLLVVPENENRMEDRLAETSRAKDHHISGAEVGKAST
How it was run: as §1

Hck (h) = biological target: T6, Hck (h) (Homo sapiens, UniProt P08631)
T6 construct: purchased Millipore
T6 sequence (P08631 whole entry): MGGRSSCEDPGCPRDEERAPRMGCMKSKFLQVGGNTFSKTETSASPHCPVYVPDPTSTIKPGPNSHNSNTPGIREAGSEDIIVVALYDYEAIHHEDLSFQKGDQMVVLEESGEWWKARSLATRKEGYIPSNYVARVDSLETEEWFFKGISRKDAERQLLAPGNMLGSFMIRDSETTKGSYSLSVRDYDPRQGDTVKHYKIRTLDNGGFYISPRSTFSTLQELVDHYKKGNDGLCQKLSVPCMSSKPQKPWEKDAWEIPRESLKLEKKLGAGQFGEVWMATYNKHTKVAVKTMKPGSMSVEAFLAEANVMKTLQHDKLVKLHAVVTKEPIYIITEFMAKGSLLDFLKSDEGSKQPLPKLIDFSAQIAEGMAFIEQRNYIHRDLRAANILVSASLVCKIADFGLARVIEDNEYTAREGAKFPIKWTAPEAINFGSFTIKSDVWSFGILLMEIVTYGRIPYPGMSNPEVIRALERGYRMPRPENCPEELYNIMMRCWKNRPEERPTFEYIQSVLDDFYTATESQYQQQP
How it was run: as §1

CDK2/cyclinA (h) = biological target: T7, CDK2/cyclinA (h) (Homo sapiens, UniProt P24941)
T7 construct: purchased Millipore
How it was run: as §1

FGFR4 (h) = FGFR4 (h) (Homo sapiens, UniProt P22455)
How it was run: as §1

CHK2(R145W) (h) = biological target: T8, CHK2(R145W) (h) (Homo sapiens, UniProt O96017, R145W)
T8 construct: purchased Millipore
T8 sequence (O96017 whole entry R145W): as the sequence (O96017 whole entry I157T) above, with R145W, T157I counted along it
How it was run: as §1

TAO2 (h) = biological target: T9, TAO2 (h) (Homo sapiens, UniProt Q9UL54)
T9 sequence (Q9UL54 1-1235): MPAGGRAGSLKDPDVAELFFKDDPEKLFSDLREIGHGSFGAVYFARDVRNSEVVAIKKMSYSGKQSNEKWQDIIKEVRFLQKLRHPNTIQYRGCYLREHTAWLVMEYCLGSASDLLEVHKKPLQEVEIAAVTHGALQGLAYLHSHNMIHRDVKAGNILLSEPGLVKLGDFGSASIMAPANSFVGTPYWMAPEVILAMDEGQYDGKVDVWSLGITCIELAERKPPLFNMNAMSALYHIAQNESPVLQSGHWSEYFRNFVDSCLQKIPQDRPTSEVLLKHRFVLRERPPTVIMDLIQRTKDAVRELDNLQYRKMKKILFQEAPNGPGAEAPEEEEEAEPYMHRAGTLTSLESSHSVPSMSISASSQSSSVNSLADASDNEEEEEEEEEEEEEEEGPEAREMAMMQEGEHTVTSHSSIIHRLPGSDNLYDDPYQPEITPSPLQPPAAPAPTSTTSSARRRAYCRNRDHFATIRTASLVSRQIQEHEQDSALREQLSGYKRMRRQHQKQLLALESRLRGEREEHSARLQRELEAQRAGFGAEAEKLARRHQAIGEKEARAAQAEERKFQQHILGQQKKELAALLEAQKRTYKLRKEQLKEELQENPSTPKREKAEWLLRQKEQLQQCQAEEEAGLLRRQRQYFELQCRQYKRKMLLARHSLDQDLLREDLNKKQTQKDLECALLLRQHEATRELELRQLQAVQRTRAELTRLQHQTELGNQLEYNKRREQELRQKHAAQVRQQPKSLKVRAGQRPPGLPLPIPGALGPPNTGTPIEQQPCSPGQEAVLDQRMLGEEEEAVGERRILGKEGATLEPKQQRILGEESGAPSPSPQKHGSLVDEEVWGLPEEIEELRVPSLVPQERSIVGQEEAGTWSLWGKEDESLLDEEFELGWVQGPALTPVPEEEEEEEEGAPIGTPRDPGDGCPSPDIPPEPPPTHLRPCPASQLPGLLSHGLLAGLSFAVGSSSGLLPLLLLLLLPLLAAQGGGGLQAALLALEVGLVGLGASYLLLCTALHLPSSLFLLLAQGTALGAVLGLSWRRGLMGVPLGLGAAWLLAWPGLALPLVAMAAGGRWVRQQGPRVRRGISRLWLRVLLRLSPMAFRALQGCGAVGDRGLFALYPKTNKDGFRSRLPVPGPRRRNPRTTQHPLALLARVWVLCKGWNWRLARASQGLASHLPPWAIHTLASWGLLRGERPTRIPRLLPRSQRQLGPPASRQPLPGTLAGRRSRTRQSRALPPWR
How it was run: as §1

FGFR1(V561M) (h) = FGFR1(V561M) (h) (Homo sapiens, UniProt P11362, V561M)
Chain of FGFR1(V561M) (h) (P11362 22-822 V561M): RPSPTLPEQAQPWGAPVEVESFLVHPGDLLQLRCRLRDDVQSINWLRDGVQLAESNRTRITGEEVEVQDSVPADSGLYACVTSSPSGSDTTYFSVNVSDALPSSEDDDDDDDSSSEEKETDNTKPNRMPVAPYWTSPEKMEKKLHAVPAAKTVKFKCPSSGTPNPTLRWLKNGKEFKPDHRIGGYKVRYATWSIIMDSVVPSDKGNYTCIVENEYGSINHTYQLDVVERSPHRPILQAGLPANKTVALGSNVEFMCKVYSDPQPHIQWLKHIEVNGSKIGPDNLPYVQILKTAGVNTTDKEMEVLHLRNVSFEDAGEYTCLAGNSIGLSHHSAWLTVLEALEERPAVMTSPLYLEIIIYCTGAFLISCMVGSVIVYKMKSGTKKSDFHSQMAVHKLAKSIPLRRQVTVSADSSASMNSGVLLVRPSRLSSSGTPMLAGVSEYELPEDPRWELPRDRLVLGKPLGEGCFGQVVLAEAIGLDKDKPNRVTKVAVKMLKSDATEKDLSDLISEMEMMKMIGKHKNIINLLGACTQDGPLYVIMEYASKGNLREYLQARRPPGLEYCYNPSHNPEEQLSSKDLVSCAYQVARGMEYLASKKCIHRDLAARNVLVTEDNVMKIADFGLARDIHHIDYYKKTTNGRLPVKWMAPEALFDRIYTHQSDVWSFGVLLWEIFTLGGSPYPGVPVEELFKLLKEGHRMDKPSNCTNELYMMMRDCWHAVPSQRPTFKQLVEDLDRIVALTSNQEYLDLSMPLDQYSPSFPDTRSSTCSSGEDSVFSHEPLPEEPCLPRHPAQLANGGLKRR
How it was run: as §1

SGK2 (h) = biological target: T10, SGK2 (h) (Homo sapiens, UniProt Q9HBY8)
T10 sequence (Q9HBY8 1-367): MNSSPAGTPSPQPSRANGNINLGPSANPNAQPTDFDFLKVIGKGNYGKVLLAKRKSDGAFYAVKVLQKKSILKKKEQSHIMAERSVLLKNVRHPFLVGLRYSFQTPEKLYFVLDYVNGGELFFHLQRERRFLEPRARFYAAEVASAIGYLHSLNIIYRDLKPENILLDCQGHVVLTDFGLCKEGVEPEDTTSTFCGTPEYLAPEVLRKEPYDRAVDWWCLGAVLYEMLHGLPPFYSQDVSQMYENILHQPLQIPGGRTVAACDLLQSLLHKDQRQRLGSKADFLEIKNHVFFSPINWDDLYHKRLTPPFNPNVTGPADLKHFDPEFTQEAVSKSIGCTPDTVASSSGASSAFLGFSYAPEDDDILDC
How it was run: as §1

T1 sequence (Q05655 whole entry): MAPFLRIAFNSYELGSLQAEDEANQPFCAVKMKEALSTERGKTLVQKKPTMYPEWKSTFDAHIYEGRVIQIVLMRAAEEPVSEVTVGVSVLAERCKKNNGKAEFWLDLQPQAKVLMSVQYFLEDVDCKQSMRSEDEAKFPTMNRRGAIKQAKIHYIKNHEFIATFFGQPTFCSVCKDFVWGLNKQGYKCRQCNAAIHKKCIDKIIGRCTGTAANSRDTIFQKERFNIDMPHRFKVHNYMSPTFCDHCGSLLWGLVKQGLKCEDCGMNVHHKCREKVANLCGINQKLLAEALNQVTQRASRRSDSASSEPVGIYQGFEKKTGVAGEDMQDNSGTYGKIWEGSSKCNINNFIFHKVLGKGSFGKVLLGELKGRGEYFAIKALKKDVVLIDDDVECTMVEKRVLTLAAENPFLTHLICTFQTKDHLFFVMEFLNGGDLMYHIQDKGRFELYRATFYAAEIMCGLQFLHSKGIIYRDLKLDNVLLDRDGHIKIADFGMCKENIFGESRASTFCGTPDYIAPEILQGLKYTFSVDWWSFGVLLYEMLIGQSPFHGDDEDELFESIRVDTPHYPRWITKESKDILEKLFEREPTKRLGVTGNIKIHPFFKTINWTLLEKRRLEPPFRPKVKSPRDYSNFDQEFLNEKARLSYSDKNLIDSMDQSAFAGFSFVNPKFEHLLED

| Sequence | % activity (PKCδ (h)) | % activity (DAPK2 (h)) | % activity (cKit (h)) | % activity (CHK2(I157T) (h)) | % activity (VRK2 (h)) | % activity (TSSK2 (h)) | % activity (Hck (h)) | % activity (CDK2/cyclinA (h)) | % activity (FGFR4 (h)) | % activity (CHK2(R145W) (h)) | % activity (TAO2 (h)) | % activity (FGFR1(V561M) (h)) | % activity (SGK2 (h)) |
| --- | --- | --- | --- | --- | --- | --- | --- | --- | --- | --- | --- | --- | --- |
| FAKLAARLYRKALARQLGVAA [MMI-0300] | 101% | 32% | 53% | 43% | 161% | 98% | 72% | 86% | 28% | 33% | 70% | 74% | 56% |
| HRRIKAWLKKIKALARQLGVAA (Mammalian) [MMI-0500] | 61% | 3% | 45% | 3% | 169% | 92% | 78% | 87% | 3% | 3% | 15% |  | −1% |
| KAFAKLAARLYRKALARQLGVAA [MMI-0400] | 90% | 16% | 43% | 41% | 185% | 94% | 72% | 92% | 19% | 31% | 74% | 74% | 98% |
| YARAAARQARAKALNRQLGVA (Mammalian) [MMI-0200] | 101% | 92% | 110% | 85% |  | 91% |  |  | 75% | 81% | 93% | 72% |  |
